± gives the standard deviation of the averaged measurements.
B1: library; a variant is named by its letters at N, in order (parent)
chain: GCUGUCACCGAGAAACUGUGAAGUAUAUCUUAAACCUGGGCACUUAAAAGAUAUAUGGAGUUAGUAGUGCAACCUGCUCGGUCUGAUGAGUCCNNNNNNGGACGAAACAGC

Key:
cyclic di-GMP [1] = variants of: B1; test: normalized RNA/DNA level without ligand (relative to sTRSVctl = 100) (log10 (% of sTRSVctl)); HEK293T; ligand: cyclic di-GMP (c-di-GMP-II aptamer); higher = less ribozyme self-cleavage, higher mRNA level; conditions: reporter: mCherry (pCS4076), ligand present: no
In short: (§1)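 Library plasmids carrying ribozyme switches linked to mCherry, or to eGFP in some ligand experiments, were transfected into HEK293T at 4 µg per 6-well well, with any ligand added 1 h earlier. Seventy-two hours on, total RNA was extracted with EDTA and reverse-transcribed, amplified, barcoded and sequenced. RNA level was RNA over DNA reads normalized to a spiked-in non-cleaving sequence or to the top sequences, then scaled and log-transformed. The top set was 25 sequences, the transform was ×100 and log10, and sequences needed ≥100 DNA reads.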

cyclic di-GMP [2] = variants of: B1; test: normalized RNA/DNA level with ligand (relative to sTRSVctl = 100) (log10 (% of sTRSVctl)); HEK293T; ligand: cyclic di-GMP (c-di-GMP-II aptamer); ligand concentration (+) RNA-Seq: 1 mM; higher = less ribozyme self-cleavage, higher mRNA level; conditions: reporter: mCherry (pCS4076), ligand present: yes
In short: as §1

cyclic di-GMP [3] = variants of: B1; test: FACS-Seq fitted mean relative fluorescence mCherry/BFP without ligand (log10 relative fluorescence); HEK293T; ligand: cyclic di-GMP (c-di-GMP-II aptamer); higher = higher reporter protein expression; conditions: ligand present: no
In short: (§2)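 The ribozyme switch sat in an mCherry reporter, delivered by lentivirus into HEK293T libraries along with an EF1α-BFP marker. Enriched cells were incubated 48 h with or without ligand, sorted into 6 bins by mCherry/BFP, and bin genomic DNA was PCR-amplified, barcoded and MiSeq-sequenced. Fluorescence equals the fitted normal mean of the bin counts after normalization. Those log10(mCherry/BFP) means were scaled to five spiked-in control ribozymes.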

cyclic di-GMP [4] = variants of: B1; test: FACS-Seq fitted mean relative fluorescence mCherry/BFP with ligand (log10 relative fluorescence); HEK293T; ligand: cyclic di-GMP (c-di-GMP-II aptamer); ligand concentration (+) FACS-Seq: 1 mM; higher = higher reporter protein expression; conditions: ligand present: yes
In short: as §2

| Variant | normalized RNA/DNA level without ligand (log10) (cyclic di-GMP [1]) | normalized RNA/DNA level with ligand (log10) (cyclic di-GMP [2]) | FACS-Seq fitted mean (log10) (cyclic di-GMP [3]) | FACS-Seq fitted mean (log10) (cyclic di-GMP [4]) |
| --- | --- | --- | --- | --- |
| CCAGUG | 1.27 ± 0.14 | 1.48 ± 0.06 |  |  |
| CGAUAC | 1.61 ± 0.033 | 1.77 ± 0.084 |  |  |
| CCACUA | 1.43 ± 0.13 | 1.66 ± 0.067 | -0.725 ± 0.038 | -0.348 ± 0.019 |
| UGACAC | 1.7 ± 0.022 | 1.87 ± 0.086 |  |  |
| UUUGCU | 1.76 ± 0.057 | 1.88 ± 0.14 |  |  |
| UGUCAA | 1.69 ± 0.048 | 1.82 ± 0.096 |  |  |
| AGGCGG | 1.79 ± 0.026 | 1.88 ± 0.063 |  |  |
| ACCGCA | 1.667 ± 0.015 | 1.8 ± 0.11 |  |  |
| UCGAAC | 1.62 ± 0.026 | 1.76 ± 0.1 |  |  |
| AUUACG | 1.67 ± 0.032 | 1.83 ± 0.072 | -0.439 ± 0.014 | -0.0914 ± 0.065 |
| UCUAGG | 1.81 ± 0.049 | 1.88 ± 0.12 |  |  |
| CCUAUA | 1.43 ± 0.12 | 1.65 ± 0.067 | -0.492 ± 0.012 | -0.121 ± 0.047 |
| GGACCA | 1.72 ± 0.021 | 1.81 ± 0.021 |  |  |
| CACGCU | 1.722 ± 0.0093 | 1.84 ± 0.12 |  |  |
| CUUUGG | 1.781 ± 0.0073 | 1.87 ± 0.089 |  |  |
| AGUAUA | 1.47 ± 0.015 | 1.69 ± 0.11 |  |  |
| ACGCGA | 1.4 ± 0.11 | 1.62 ± 0.11 |  |  |
| ACUCAU | 1.61 ± 0.022 | 1.81 ± 0.15 |  |  |
| UCGUUU | 1.68 ± 0.042 | 1.85 ± 0.11 |  |  |
| UUAGGA | 1.57 ± 0.079 | 1.76 ± 0.089 |  |  |
| CAGGGA | 1.53 ± 0.13 | 1.67 ± 0.067 |  |  |
| UGUGCG | 1.804 ± 0.0083 | 1.93 ± 0.059 |  |  |
| AAAAUA | 1.48 ± 0.041 | 1.69 ± 0.1 |  |  |
| AGUCAU | 1.69 ± 0.071 | 1.85 ± 0.13 |  |  |
| AGUCAA | 1.48 ± 0.039 | 1.69 ± 0.1 |  |  |
| GUUGAU | 1.61 ± 0.033 | 1.76 ± 0.14 |  |  |
| CUUCUA | 1.44 ± 0.072 | 1.67 ± 0.075 | -0.605 ± 0.032 | -0.312 ± 0.059 |

| Variant | normalized RNA/DNA level without ligand (log10) (cyclic di-GMP [1]) | normalized RNA/DNA level with ligand (log10) (cyclic di-GMP [2]) | FACS-Seq fitted mean (log10) (cyclic di-GMP [3]) | FACS-Seq fitted mean (log10) (cyclic di-GMP [4]) |
| --- | --- | --- | --- | --- |
| UGCCGU | 1.66 ± 0.013 | 1.83 ± 0.12 |  |  |
| UGUUGU | 1.72 ± 0.015 | 1.9 ± 0.061 |  |  |
| UGCAGG | 1.747 ± 0.003 | 1.85 ± 0.12 |  |  |
| AAGAAA | 1.38 ± 0.11 | 1.56 ± 0.035 | -0.319 ± 0.062 | -0.0342 ± 0.062 |
| UAUCCC | 1.83 ± 0.0035 | 1.9 ± 0.055 |  |  |
| ACCUGU | 1.72 ± 0.063 | 1.84 ± 0.13 |  |  |
| CAGCCG | 1.847 ± 0.0028 | 1.9 ± 0.074 |  |  |
| CGUGAC | 1.58 ± 0.081 | 1.74 ± 0.092 | -0.217 ± 0.012 | 0.0888 ± 0.11 |
| GUGGAU | 1.52 ± 0.093 | 1.72 ± 0.072 | -0.528 ± 0.045 | -0.192 ± 0.024 |
| AGGGUA | 1.53 ± 0.035 | 1.6 ± 0.12 |  |  |
| ACGCCG | 1.74 ± 0.046 | 1.85 ± 0.067 |  |  |
| CCCACC | 1.728 ± 0.007 | 1.84 ± 0.097 |  |  |
| AUUAUG | 1.58 ± 0.022 | 1.77 ± 0.1 |  |  |
| GAUUCG | 1.7482 ± 0.0012 | 1.88 ± 0.06 |  |  |
| CCUGCA | 1.67 ± 0.056 | 1.84 ± 0.058 |  |  |
| AGUUUC | 1.75 ± 0.025 | 1.85 ± 0.13 |  |  |
| GCCUCU | 1.721 ± 0.017 | 1.87 ± 0.04 |  |  |
| AUGCCU | 1.74 ± 0.044 | 1.87 ± 0.14 |  |  |
| GGAAAC | 1.74 ± 0.088 | 1.83 ± 0.19 |  |  |
| GUUAUC | 1.51 ± 0.045 | 1.74 ± 0.067 |  |  |
| CGGUCU | 1.56 ± 0.064 | 1.72 ± 0.11 |  |  |
| ACGUUU | 1.32 ± 0.16 | 1.52 ± 0.078 | -0.522 ± 0.028 | -0.336 ± 0.035 |
| CCGCGU | 1.69 ± 0.02 | 1.84 ± 0.17 |  |  |
| AGCGAA | 1.41 ± 0.069 | 1.61 ± 0.15 | -0.109 ± 0.022 | 0.163 ± 0.081 |
| AGCGAG | 1.57 ± 0.13 | 1.74 ± 0.042 |  |  |
| AGUGUC | 1.62 ± 0.071 | 1.76 ± 0.052 | -0.2695 ± 0.0013 | 0.0884 ± 0.21 |

Source: the supplement of paper PMC6757056
